Assay results as given in patent US20210071162A1 (CENTRE NATIONAL DE LA RECHERCHE SCIENTIFIQUE, published 2021).

Columns and labels:
[1] = target: T1, GMDSLAFSGGL
T1 chain: GMDSLAFSGGL

[2] = target: T2, Gly-Gly-pNA
T2 chain: GG

[3] = target: T3, GLM
T3 chain: GLM

[4] = target: T4, LGG
T4 chain: LGG

[5] = target: the molecule itself; test: self-assembly of PhTET4 subunits; size-exclusion chromatography and negative stain electron microscopy
Experimental: After the size exclusion chromatography step, 4 μl of PhTET4 at 0.05 mg/ml were deposited onto carbon-coated 400-mesh copper grids. The samples were stained using uranyl acetate 2% and air-dried. Images were taken under low-dose conditions in a T12FEI electron microscope working at 120 kV and with a nominal magnification of 40,000 using an Orius SC1000 CCD camera.
The three-dimensional structure of PhTET4 was assessed by producing the recombinant PhTET4 in E. coll. The cellular extract was clarified by heat shock precipitation and the recombinant protein was purified by ion-exchange and size-exclusion chromatographies. […] The dimensions and the shape of PhTET4 are analogous to the three P. horikoshii tetrahedral TET edifices: PhTET1, PhTET2 and PhTET3.

B1: PhTET4 (enzyme)
chain: MERIVKILREILEIPSPTGYTKEVMSYLEKFLKENEVNFYYTNKGALIAGNHPKPELVVIAHVDTLGAMVKEILPDGHLAFSRIGGLVLPTFEGEYCTIITRKGKKFRGTLLLRNPSAHVNREVGKKERKEENMYIRLDELVEKREDTEKLGIRPGDFIAFDPKFEYVNGFVKSHFLDDKASVAAILDLIIDMKDELEKYPVAFFFSPYEEVGHGGSAGYPPTTKELLVVDMGVVGEGVSGKETAVSIAAKDTTGPYDYDMTNRLIELAEENNIPYVVDVFPYYGSDGSAALRAGWDFRVALIGPGVHASHGMERTHVKGLLATKELIRAYIKWKG
notes: also called TET protein; protein encoded by PH0737 gene
cleavage of the N-terminal residue of the peptide (reverse phase HPLC, N-terminal sequencing of products) [1]: PhTET4 does not exert amidolytic activity beyond the N-ter glycine in a peptide context
enzymatic activity against the chromogenic peptide (released pNA), relative to Gly-pNA [2]: PhTET4 displayed significant activity against this substrate, corresponding to 10% of the total activity exhibited in presence of monoacyl compound Gly-pNA
cleavage of the N-terminal residue of the peptide (reverse phase HPLC, N-terminal sequencing of products) [3]: PhTET4 does not exert amidolytic activity beyond the N-ter glycine in a peptide context
cleavage of the N-terminal residue of the peptide (reverse phase HPLC, N-terminal sequencing of products) [4]: no enzymatic activity was detected against peptide that do not start by glycine residue even if a glycine residue is present at P1′ position as demonstrated with the LGG tripeptide
binding result [5]: binds
